Test results from patent US20140105915A1 (GlaxoSmithKline, published 2014).

T1: human BCMA on cells (human, UniProt Q02223 1-184)
T1 sequence (looked up): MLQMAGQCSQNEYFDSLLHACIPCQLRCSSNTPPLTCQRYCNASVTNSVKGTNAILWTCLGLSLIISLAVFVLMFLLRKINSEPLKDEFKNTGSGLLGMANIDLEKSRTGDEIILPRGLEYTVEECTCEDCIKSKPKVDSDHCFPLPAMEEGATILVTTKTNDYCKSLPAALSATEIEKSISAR

T2: recombinant human BCMA (in house) (human, UniProt Q02223 4-53, limits assumed)
T2 construct: Analyte in the ProteOn runs; also called Human in house BCMA; In house human BCMA
T2 chain (looked up): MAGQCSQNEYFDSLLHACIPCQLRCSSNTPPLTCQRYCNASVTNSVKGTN


Columns and labels:
human BCMA on cells [1] = target: T1, human BCMA on cells; assay: cell-based or functional assay
[2] = target: T3, recombinant human BCMA Fc 4-53 (human); assay: competition ELISA, coated recombinant human BCMA Fc 4-53, blocked ligand recombinant human BAFF (6 ng/mL), biotinylated anti-BAFF detection [A]
T3 construct: also called CD33-hBCMA ECD (4-53) TEV-Fc; recombinant BCMA coated on an ELISA plate
Description: 96 well flat bottomed plates were coated overnight with 1 μg/mL solution of recombinant human BCMA Fc 4-53 in PBS. Following a wash step using 0.05% TWEEN20, plates were blocked with 2% Bovine Serum Albumin solution in PBS for 1 hour at room temperature. […] 40 μL of 2% BSA was added to the relevant control wells. […] Equivalent volume of 2% BSA was added to the relevant control wells. Plates were allowed to incubate for 2 hours at room temperature, after which they were washed as before. […] Following a wash step, 50 μL of a 1:4000 dilution of Streptavidin-HRP (Amersham RPN4401) was added to each well and incubated for 30 minutes at room temperature. The wash process was repeated again followed by the addition of 100 μL of Tetramethylbenzidine substrate solution (T8665, Sigma) into each well. Plates were incubated for 20-25 minutes at room temperature, wrapped in foil. The reaction was stopped with the addition of 100 μL of 1M H₂SO₄. Optical density was determined at 450 nm using Spectromax reader.

[3] = target: T2, recombinant human BCMA (in house); assay: SPR ProteOn XPR36, mAb captured on Protein A, 25C, run 2
Description: The initial screen of CA8 chimeric and humanised variants was carried out on the ProteOn XPR36 (Biorad). The method was as follows; Protein A was immobilised on a GLC chip (Biorad, Cat No: 176-5011) by primary amine coupling, CA8 variants were then captured on this surface and recombinant human BCMA (in house or commercial US Biological, B0410) materials (run 2 only)) passed over at 256, 64, 16, 4, 1 nM with a OnM injection (i.e. buffer alone) used to double reference the binding curves, the buffer used is the HBS-EP buffer. 50 mM NaOH was used to regenerate the capture surface. The data was fitted to the 1:1 model using the analysis software inherent to the ProteOn XPR36. […] Both runs were carried out at 25° C.

[4] = target: T2, recombinant human BCMA (in house); assay: SPR ProteOn XPR36, mAb captured on Protein A, 25C, run 1
[5] = target: T4, cyno BCMA on HEK293 cells (cyno, UniProt A0A2K5UD97 1-183); assay: FMAT, HEK293 cells transfected with cyno BCMA, anti-human IgG FMAT Blue detection
T4 construct: whole, on cells; also called cyno BCMA HEK293
Description: (§1) Cryopreserved transfected human, cyno BCMA and mock transfected HEK293 cells were recovered from LN2 storage. […] The assay plates were left for a minimum of 90 minutes before the result was read on the AB18200 (FMAT) plate reader.

human BCMA on cells [6] = target: T1, human BCMA on cells; assay: FMAT, HEK293 cells transfected with human BCMA, anti-human IgG FMAT Blue detection
Description: as §1

T4 sequence (A0A2K5UD97 entry or part of it): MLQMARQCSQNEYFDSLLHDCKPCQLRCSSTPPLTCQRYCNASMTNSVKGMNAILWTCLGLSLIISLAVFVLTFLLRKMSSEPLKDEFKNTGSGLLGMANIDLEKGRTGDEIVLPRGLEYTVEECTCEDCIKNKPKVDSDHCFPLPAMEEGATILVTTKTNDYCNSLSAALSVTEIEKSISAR

| Binder | binding result [3] | further results |
| --- | --- | --- |
| J6M0 potelligent (antibody, human IgG1, kappa, V domains shown, afucosylated (Potelligent) Fc glycan, Same chains as J6M0, made in FUT8-deficient cells (afucosylated); human IgG1/kappa; also called J6M0 potelligent version; afucosylated (Potelligent) J6M0) VH: QVQLVQSGAEVKKPGSSVKVSCKASGGTFSNYWMHWVRQAPGQGLEWMGATYRGHSDTYYNQKFKGRVTITADKSTSTAYMELSSLRSEDTAVYYCARGAIYDGYDVLDNWGQGTLVTVSS VL: DIQMTQSPSSLSASVGDRVTITCSASQDISNYLNWYQQKPGKAPKLLIYYTSNLHSGVPSRFSGSGSGTDFTLTISSLQPEDFATYYCQQYRKLPWTFGQGTKLEIKR |  | IC50 for inhibition of APRIL signalling (phosphorylated NFkappaB in washed H-929 cells, MSD assay) (human BCMA on cells [1]): 2.43 µg/mL; IC50 for inhibition of BAFF signalling (phosphorylated NFkappaB in washed H-929 cells, MSD assay) (human BCMA on cells [1]): 0.91 µg/mL; IC50 (read off the curve) [2]: ~0.8 µg/mL |
| CA8 humanised J8M1 (antibody, human IgG1, kappa, V domains shown, humanised, human IgG1/kappa) VH: QVQLVQSGAEVKKPGSSVKVSCKASGYTFTNYWMHWVRQAPGQGLEWMGATYRGHSDTYYNQKFKGRVTITADKSTSTAYMELSSLRSEDTAVYYCTRGAIYDGYDVLDNWGQGTLVTVSS VL: DIQMTQSPSSLSASVGDRVTITCSASQDISNYLNWYQQKPGKAPKLLIYYTSNLHSGVPSRFSGSGSGTDYTLTISSLQPEDFATYYCQQYRKLPWTFGQGTKLEIKR | binds |  |
| CA8 humanised J7M1 (antibody, human IgG1, kappa, V domains shown, humanised, human IgG1/kappa) VH: QVQLVQSGAEVKKPGSSVKVSCKASGYTFTNYWMHWVRQAPGQGLEWMGATYRGHSDTYYNQKFKGRVTITADKSTSTAYMELSSLRSEDTAVYYCARGAIYDGYDVLDNWGQGTLVTVSS VL: DIQMTQSPSSLSASVGDRVTITCSASQDISNYLNWYQQKPGKAPKLLIYYTSNLHSGVPSRFSGSGSGTDYTLTISSLQPEDFATYYCQQYRKLPWTFGQGTKLEIKR | binds |  |
| CA8 humanised J7M0 (antibody, human IgG1, kappa, V domains shown, humanised, human IgG1/kappa) VH: QVQLVQSGAEVKKPGSSVKVSCKASGYTFTNYWMHWVRQAPGQGLEWMGATYRGHSDTYYNQKFKGRVTITADKSTSTAYMELSSLRSEDTAVYYCARGAIYDGYDVLDNWGQGTLVTVSS VL: DIQMTQSPSSLSASVGDRVTITCSASQDISNYLNWYQQKPGKAPKLLIYYTSNLHSGVPSRFSGSGSGTDFTLTISSLQPEDFATYYCQQYRKLPWTFGQGTKLEIKR | binds |  |
| CA8 humanised J9M2 (antibody, human IgG1, kappa, V domains shown, humanised, human IgG1/kappa) VH: QVQLVQSGAEVKKPGSSVKVSCKGSGYTFTNYWMHWVRQAPGQGLEWIGATYRGHSDTYYNQKFKGRATLTADTSTSTAYMELSSLRSEDTAVYYCTRGAIYDGYDVLDNWGQGTLVTVSS VL: DIQLTQSPSSLSASVGDRVTITCSASQDISNYLNWYQQKPGKAPELVIYYTSNLHSGVPSRFSGSGSGTDYTLTISSLQPEDFATYYCQQYRKLPWTFGQGTKLEIKR | binds |  |
| S307118G03 humanised H4L1 (antibody, human IgG1, kappa, V domains shown, humanised, human IgG1/kappa) VH: QVQLVQSGAEVKKPGSSVKVSCKASGYTFTDYYMKWVRQAPGQGLEWMGEIYPNNGGITYNQKFKGRVTITADKSTSTAYMELSSLRSEDTAVYYCADGYEFVYWGQGTLVTVSS VL: DIQMTQSPSSLSASVGDRVTITCSASQGISNYLNWYQQKPGKAPKLLIYYTSSLHSGVPSRFSGSGSGTDYTLTISSLQPEDFATYYCQQYSKLPWTFGQGTKLEIKR |  | binding result [4]: no binding (tested: 256 nM (highest analyte concentration)) |
| CA8 humanised J7M2 (antibody, human IgG1, kappa, V domains shown, humanised, human IgG1/kappa) VH: QVQLVQSGAEVKKPGSSVKVSCKASGYTFTNYWMHWVRQAPGQGLEWMGATYRGHSDTYYNQKFKGRVTITADKSTSTAYMELSSLRSEDTAVYYCARGAIYDGYDVLDNWGQGTLVTVSS VL: DIQLTQSPSSLSASVGDRVTITCSASQDISNYLNWYQQKPGKAPELVIYYTSNLHSGVPSRFSGSGSGTDYTLTISSLQPEDFATYYCQQYRKLPWTFGQGTKLEIKR | binds |  |
| CA8 humanised J8M0 (antibody, human IgG1, kappa, V domains shown, humanised, human IgG1/kappa) VH: QVQLVQSGAEVKKPGSSVKVSCKASGYTFTNYWMHWVRQAPGQGLEWMGATYRGHSDTYYNQKFKGRVTITADKSTSTAYMELSSLRSEDTAVYYCTRGAIYDGYDVLDNWGQGTLVTVSS VL: DIQMTQSPSSLSASVGDRVTITCSASQDISNYLNWYQQKPGKAPKLLIYYTSNLHSGVPSRFSGSGSGTDFTLTISSLQPEDFATYYCQQYRKLPWTFGQGTKLEIKR | binds |  |
| CA8 humanised J8M2 (antibody, human IgG1, kappa, V domains shown, humanised, human IgG1/kappa) VH: QVQLVQSGAEVKKPGSSVKVSCKASGYTFTNYWMHWVRQAPGQGLEWMGATYRGHSDTYYNQKFKGRVTITADKSTSTAYMELSSLRSEDTAVYYCTRGAIYDGYDVLDNWGQGTLVTVSS VL: DIQLTQSPSSLSASVGDRVTITCSASQDISNYLNWYQQKPGKAPELVIYYTSNLHSGVPSRFSGSGSGTDYTLTISSLQPEDFATYYCQQYRKLPWTFGQGTKLEIKR | binds |  |
| CA8 humanised J6M0 (antibody, human IgG1, kappa, V domains shown, humanised, human IgG1/kappa; also called CA8 J6M0; humanised J6M0 (wild type)) VH: QVQLVQSGAEVKKPGSSVKVSCKASGGTFSNYWMHWVRQAPGQGLEWMGATYRGHSDTYYNQKFKGRVTITADKSTSTAYMELSSLRSEDTAVYYCARGAIYDGYDVLDNWGQGTLVTVSS VL: DIQMTQSPSSLSASVGDRVTITCSASQDISNYLNWYQQKPGKAPKLLIYYTSNLHSGVPSRFSGSGSGTDFTLTISSLQPEDFATYYCQQYRKLPWTFGQGTKLEIKR |  | IC50 (read off the curve) [2]: ~0.8 µg/mL |
| CA8 chimera (antibody, V domains shown, also called chimeric CA8; human chimeric CA8) VH: EVQLQQSGAVLARPGASVKMSCKGSGYTFTNYWMHWVKQRPGQGLEWIGATYRGHSDTYYNQKFKGKAKLTAVTSTSTAYMELSSLTNEDSAVYYCTRGAIYNGYDVLDNWGQGTLVTVSS VL: DIQLTQTTSSLSASLGDRVTISCSASQDISNYLNWYQQKPDGTVELVIYYTSNLHSGVPSRFSGSGSGTDYSLTIGYLEPEDVATYYCQQYRKLPWTFGGGSKLEIKR |  | EC50 (read off the curve) [5]: ~0.3 µg/mL; EC50 (read off the curve) (human BCMA on cells [6]): ~0.4 µg/mL |
